According to patent publication US6130078:

System: NspHI restriction endonuclease (NspHIR) (Nostoc sp. (ATCC 29106))
Experiment: cleavage_in_vitro
Conditions: cell extract dilutions 10^-1 to 10^-5 on lambda DNA

In the case of bacteriophage lambda DNA, the activity (units per g wet cells) is reported as 186000.
